The numbers were not newly measured in US20130337579, which cites them from elsewhere.

This data set has as its target CRP (cited studies) (Escherichia coli) (UniProt P0ACJ8). The data set is described as follows: EMSA. To be noted: CITED Fried 1984.

Sequence of CRP (cited studies) (Escherichia coli) (P0ACJ8 2-210): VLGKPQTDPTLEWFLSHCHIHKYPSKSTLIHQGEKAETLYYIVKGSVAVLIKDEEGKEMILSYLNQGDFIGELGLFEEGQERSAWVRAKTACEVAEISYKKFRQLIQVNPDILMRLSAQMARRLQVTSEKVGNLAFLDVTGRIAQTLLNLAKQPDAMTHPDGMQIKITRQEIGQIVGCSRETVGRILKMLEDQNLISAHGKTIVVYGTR

lac CRP oligo (Fried 1984): the equilibrium dissociation constant (Kd) was 0.063 µM (200 nM cAMP) and 0.00084 µM (5 uM cAMP).
